Data published in article PMC3785238 (Cell, 2013).

Tests used:
mGluR5-SIC = format: cell-based, mouse
mGluR5 = mGluR5 phosphorylation in cultured striatal neurons; format: cell-based; conditions: primary striatal cultures
Pin1-mGluR5 binding = assay: Co-immunoprecipitation of Pin1 and mGluR5 in HEK293T cells; format: cell-based; conditions: no other Homer

Row | Molecule | mGluR5-SIC amplitude or duration, WT neurons (mGluR5-SIC; BDNF 10 ng/ml, 10 min, WT neurons, n = 14, 40-min monitoring) | mGluR5-SIC potentiation, WT neurons pretreated with KCl (mGluR5-SIC; BDNF 10 ng/ml, 10 min, after KCl pretreatment, n = 6, p < 0.05) | mGluR5-SIC potentiation, Grm5AA/AA neurons (mGluR5-SIC; BDNF 10 ng/ml, 10 min, Grm5AA/AA n = 8, or Homer1a-expressing n = 8) | mGluR5-SIC potentiation, Homer1aW24A mutant or GFP expressing WT neurons (mGluR5-SIC; BDNF 10 ng/ml, 10 min, Homer1aW24A n = 6, GFP n = 5) | mGluR5-SIC potentiation, Homer1c expressing Homer1−/− neurons (mGluR5-SIC; BDNF 10 ng/ml, 10 min, Homer1c viral transgene, n = 8) | mGluR5-SIC potentiation, Homer1-deficient neurons (mGluR5-SIC; BDNF 10 ng/ml, 10 min, Homer1−/−Homer2−/−Homer3−/− (n = 14) or Homer1−/− (n = 11) neurons, charge transfer versus baseline, p < 0.001) | mGluR5-SIC potentiation, Pin1−/− neurons (mGluR5-SIC; BDNF 10 ng/ml, 10 min, Pin1−/− (n = 6) or Homer1a-expressing Pin1−/− (n = 4)) | mGluR5-SIC potentiation, Homer1a expressing WT neurons (mGluR5-SIC; BDNF 10 ng/ml, 10 min, n = 6, p < 0.001) | mGluR5-SIC potentiation, Grm5R/R neurons (mGluR5-SIC; BDNF 10 ng/ml, 10 min, n = 7, p < 0.001, no KCl pretreatment or Homer1a expression needed) | mGluR5-SIC potentiation, Homer1a−/− neurons pretreated with KCl (mGluR5-SIC; BDNF after KCl pretreatment, n = 3) | mGluR5 phosphorylation in striatal cultures (mGluR5) | effect of co-expression on Pin1-mGluR5 binding (Pin1-mGluR5 binding)
1 | BDNF: TrkB receptor ligand (protein, UniProt P21237 19-249, looked up) Neurotrophic factor BDNF …: APMKEVNVHGQGNLAYPGVRTHGTLESVNGPRAGSRGLTTTSLADTFEHVIEELLDEDQKVRPNEENHKDADLYTSRVMLSSQVPLEPPLLFLLEEYKNYLDAANMSMRVRRHSDPARRGELSVCDSISEWVTAADKKTAVDMSGGTVTVLEKVPVSKGQLKQYFYETKCNPMGYTKEGCRGIDKRHWNSQCRTTQSYVRALTMDSKKRIGWRFIRIDTSCVCTLTIKRGR | did not alter the amplitude or duration | ~ 1.5 fold | not potentiated | absent | blocked BDNF potentiation | > 2 fold | not potentiated | potentiated | potentiated | not in Homer1a^−/− pre-treated with KCl | increases mGluR5 phosphorylation | 
2 | Homer1c: constitutively expressed cross-linking Homer protein (protein, left off: tag not named ('Tagged transgenes'), end not stated, state not stated) MGEQPIFSTRAHVFQIDPNTKKNWVPTSKHAVTVSYFYDSTRNVYRIISLDGSKAIINSTITPNMTFTKTSQKFGQWADSRANTVYGLGFSSEHHLSKFAEKFQEFKEAARLAKEKSQEKMELTSTPSQESAGGDLQSPLTPESINGTDDERTPDVTQNSEPRAEPAQNALPFSHSAGDRTQGLSHASSAISKHWEAELATLKGNNAKLTAALLESTANVKQWKQQLAAYQEEAERLHKRVTELECVSSQANAVHSHKTELSQTVQELEETLKVKEEEIERLKQEIDNARELQEQRDSLTQKLQEVEIRNKDLEGQLSELEQRLEKSQSEQDAFRSNLKTLLEILDGKIFELTELRDNLAKLLECS |  |  |  |  |  |  |  |  |  |  |  | reduced Pin1-mGluR5 binding
